The target of assay [1] is T1, recombinant human CD73 enzyme (human) (UniProt P21589).
T1 sequence (looked up): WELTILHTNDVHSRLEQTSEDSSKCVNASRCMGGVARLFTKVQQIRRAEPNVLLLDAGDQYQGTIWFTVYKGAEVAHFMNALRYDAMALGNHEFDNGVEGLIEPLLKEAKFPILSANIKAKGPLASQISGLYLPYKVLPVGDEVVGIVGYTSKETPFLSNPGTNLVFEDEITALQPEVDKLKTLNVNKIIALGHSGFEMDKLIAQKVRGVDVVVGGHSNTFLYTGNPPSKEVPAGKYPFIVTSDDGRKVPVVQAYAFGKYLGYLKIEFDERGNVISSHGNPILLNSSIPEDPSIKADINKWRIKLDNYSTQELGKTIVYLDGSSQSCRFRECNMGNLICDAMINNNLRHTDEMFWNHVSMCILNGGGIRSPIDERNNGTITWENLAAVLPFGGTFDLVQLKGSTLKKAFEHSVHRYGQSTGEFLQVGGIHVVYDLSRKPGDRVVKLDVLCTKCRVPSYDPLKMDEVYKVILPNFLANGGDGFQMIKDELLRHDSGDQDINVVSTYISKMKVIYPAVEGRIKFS
The assay is described as follows: cell-based or functional assay.

The target in assay [2] is T2, human CD73 expressed on cells (human) (UniProt P21589).
T2 sequence (looked up): T1 sequence (looked up)
The assay can be described thus: cell-based or functional assay.

Consider Oleclumab (antibody), for which the cell-free CD73 enzyme inhibition, maximal inhibition in assay [1] amounted to 80%.

Consider hIgG1 isotype control (antibody), for which, in assay [2], the Cell internalization EC50 (nM), Fab-ZAP saporin assay, MDA-MB-231 was > 100 nM.
